This test deals with Cyclin B1^165-433 (isolated) (UniProt P14635 165-433). Description: SEC. In general terms: SEC sorts molecules by how far they enter the pores of the column.
Cyclin B1^165-433 (isolated), sequence (P14635 165-433): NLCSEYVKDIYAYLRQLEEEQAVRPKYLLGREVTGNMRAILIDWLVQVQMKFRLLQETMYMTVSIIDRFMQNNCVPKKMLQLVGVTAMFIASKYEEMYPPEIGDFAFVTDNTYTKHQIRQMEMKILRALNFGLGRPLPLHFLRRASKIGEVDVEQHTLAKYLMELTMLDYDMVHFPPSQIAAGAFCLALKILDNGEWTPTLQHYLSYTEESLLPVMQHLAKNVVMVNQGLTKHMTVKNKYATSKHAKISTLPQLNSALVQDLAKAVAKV

For the molecule LQMQYQQSMQLEERAEQIRSKS (domain or fragment) [MBP-MAD1^41-62], the binding result is listed as “binds”.
